These are literature values, as cited in article PMC6255930.

The target in the data set is hemopexin (Homo sapiens) (UniProt P02790).
Chain of UniProt P02790 (P02790 24-462): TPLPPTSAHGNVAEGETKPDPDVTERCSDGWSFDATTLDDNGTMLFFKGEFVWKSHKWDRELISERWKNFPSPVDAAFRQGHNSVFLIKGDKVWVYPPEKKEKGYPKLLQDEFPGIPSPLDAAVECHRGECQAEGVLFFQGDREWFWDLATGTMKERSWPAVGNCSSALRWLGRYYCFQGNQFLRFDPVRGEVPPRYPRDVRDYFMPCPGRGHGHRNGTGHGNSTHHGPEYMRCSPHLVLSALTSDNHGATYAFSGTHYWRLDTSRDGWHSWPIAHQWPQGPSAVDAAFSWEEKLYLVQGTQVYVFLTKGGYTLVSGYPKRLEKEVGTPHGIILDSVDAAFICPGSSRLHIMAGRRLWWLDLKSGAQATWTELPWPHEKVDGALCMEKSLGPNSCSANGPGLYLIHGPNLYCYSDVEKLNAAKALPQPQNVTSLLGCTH

Consider LRP1 (from UniProt Q07954), for which the Kd was 4 nM.

What is called Kd is a measure of binding affinity in units of concentration.
